According to patent US20070286806A1, “Methods and Compositions for Modulating a Steroid Receptor” (Mount Sinai Hospital, priority 2004, published 2007):

Experiments:
Type in all cases: cell-based
ERβ = target: T1, ERβ (Homo sapiens, UniProt Q92731); assay: ERβ transactivation, 3xERE luciferase reporter in SHM cells; details: 3xERE promoter
T1 construct: expressed in transfected cells; host or cells: SHM (Syrian hamster myocyte) cells
Experimental: (§1) FIG. 4. PSF inhibit transactivation of PR but not estrogen receptor (ER). (A) SHM cells were transient cotransfected with PRA or PRB expression vectors with or without increasing dose (0.05, 0.1 and 0.2 μg) of His-PSF, together with 3×PRE (upper) or MMTV (lower) luciferase reporter vector. Four hours after transfection, culture medium was replaced with fresh DMEM containing 10 nM progesterone and the incubation continued for at least 30 hours. (B) SHM cells were transiently cotransfected with ERα or ERβ expression vector with (0.2 μg) or without His-PSF, together with 3×ERE luciferase reporter vector. Four hours after transfection, culture medium was replaced with fresh DMEM with (solid bar) or without (empty bar) 10 nM estrodial and incubation continued for at least 30 hours. Luciferase activity was measured and normalized by β-galatosidase activity. […]
(§2) For immunoprecipitation of the endogenous PR and PSF, T47D cells cultured in 150 mm dishes were lysed in 800 μl NETN buffer containing 150 mM NaCl plus protease inhibitor cocktail. […] Gels were treated with Enhancer (NEN, Boston, US) dried and analyzed by autoradiography. • Cell culture and transient transfection: SHM cells and 293T cells were maintained in DMEM plus 5% FCS (Sigma) as described before (22). […] Luciferase activity was determined by using the luciferin reagent (Promega) according to manufacture's protocol. […]

ERα = target: T2, ERα (Homo sapiens, UniProt P03372); assay: ERα transactivation, 3xERE luciferase reporter in SHM cells; details: 3xERE promoter
T2 construct: expressed in transfected cells; host or cells: SHM (Syrian hamster myocyte) cells
T2 sequence (P03372 1-595): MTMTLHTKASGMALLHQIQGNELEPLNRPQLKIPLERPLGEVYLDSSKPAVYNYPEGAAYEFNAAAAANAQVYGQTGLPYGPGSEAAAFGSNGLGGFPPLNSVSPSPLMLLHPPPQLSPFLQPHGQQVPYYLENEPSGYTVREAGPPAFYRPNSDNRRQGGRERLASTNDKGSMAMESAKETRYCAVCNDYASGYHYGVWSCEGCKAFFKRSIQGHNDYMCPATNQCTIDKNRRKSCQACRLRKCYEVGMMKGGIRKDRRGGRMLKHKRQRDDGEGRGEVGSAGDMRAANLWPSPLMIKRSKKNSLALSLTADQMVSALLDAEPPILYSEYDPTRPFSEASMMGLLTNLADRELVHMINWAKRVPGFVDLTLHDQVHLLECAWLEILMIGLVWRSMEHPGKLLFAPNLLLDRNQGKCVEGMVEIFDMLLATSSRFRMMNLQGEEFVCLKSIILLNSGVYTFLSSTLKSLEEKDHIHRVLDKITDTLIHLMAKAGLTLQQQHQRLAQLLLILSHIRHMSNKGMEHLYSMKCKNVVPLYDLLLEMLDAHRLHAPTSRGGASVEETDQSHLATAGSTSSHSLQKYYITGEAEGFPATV
Experimental: as §1, §2

PRA = target: T3, PRA (Homo sapiens, UniProt P06401); assay: Transactivation of progesterone responsive promoters (3xPRE-Luc, MMTV-Luc) by PRA in SHM cells; details: 10 nM progesterone, increasing dose of His-PSF vector
T3 construct: expressed in transfected cells; host or cells: SHM (Syrian hamster myocyte) cells
T3 sequence (P06401 1-769 isoform P06401-2): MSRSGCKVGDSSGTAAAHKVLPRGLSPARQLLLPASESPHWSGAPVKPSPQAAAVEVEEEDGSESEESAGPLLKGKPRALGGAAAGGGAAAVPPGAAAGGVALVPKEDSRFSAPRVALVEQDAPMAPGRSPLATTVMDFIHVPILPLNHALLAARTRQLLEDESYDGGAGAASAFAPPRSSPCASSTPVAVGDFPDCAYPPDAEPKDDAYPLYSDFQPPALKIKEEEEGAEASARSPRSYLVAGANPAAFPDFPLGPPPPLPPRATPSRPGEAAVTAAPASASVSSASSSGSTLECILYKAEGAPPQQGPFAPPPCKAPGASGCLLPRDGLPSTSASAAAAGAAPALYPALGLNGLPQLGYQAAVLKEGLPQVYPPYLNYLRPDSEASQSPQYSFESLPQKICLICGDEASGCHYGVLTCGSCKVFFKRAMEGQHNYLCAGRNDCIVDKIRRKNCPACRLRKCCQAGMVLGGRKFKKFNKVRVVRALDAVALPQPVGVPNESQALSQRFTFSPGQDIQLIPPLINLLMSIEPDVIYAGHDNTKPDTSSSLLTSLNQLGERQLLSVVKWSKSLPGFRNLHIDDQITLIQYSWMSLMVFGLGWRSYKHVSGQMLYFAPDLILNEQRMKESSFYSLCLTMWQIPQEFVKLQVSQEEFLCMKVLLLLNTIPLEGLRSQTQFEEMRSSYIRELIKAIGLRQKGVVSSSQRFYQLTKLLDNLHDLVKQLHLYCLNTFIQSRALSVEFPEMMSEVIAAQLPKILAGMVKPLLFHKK
Experimental: as §1, §2

T1 sequence (Q92731 whole entry, species assumed): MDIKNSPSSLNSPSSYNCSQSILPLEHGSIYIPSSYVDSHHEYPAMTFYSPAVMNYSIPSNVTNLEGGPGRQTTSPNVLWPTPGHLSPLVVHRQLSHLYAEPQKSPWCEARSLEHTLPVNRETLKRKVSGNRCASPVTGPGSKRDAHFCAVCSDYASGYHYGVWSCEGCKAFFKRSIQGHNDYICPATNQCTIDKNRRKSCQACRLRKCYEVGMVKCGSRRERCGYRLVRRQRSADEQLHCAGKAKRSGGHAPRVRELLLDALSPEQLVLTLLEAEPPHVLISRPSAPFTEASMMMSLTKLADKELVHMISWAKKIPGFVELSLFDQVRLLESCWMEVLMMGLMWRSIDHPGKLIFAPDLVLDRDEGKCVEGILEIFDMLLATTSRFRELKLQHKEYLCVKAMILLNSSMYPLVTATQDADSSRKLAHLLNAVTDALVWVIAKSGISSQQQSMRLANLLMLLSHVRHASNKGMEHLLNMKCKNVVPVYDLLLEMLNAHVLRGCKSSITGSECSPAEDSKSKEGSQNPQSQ

B1: polypyrimidine tract binding protein-associated splicing factor (protein)
chain: MSRDRFRSRGGGGGGFHRRGGGGGRGGLHDFRSPPPGMGLNQNRGPMGPGPGQSGPKPPIPPPPPHQQQQQPPPQQPPPQQPPPHQPPPHPQPHQQQQPPPPPQDSSKPVVAQGPGPAPGVGSAPPASSSAPPATPPTSGAPPGSGPGPTPTPPPAVTSAPPGAPPPTPPSSGVPTTPPQAGGPPPPPAAVPGPGPGPKQGPGPGGPKGGKMPGGPKPGGGPGLSTPGGHPKPPHRGGGEPRGGRQHHPPYHQQHHQGPPPGGPGGRSEEKISDSEGFKANLSLLRRPGEKTYTQRCRLFVGNLPADITEDEFKRLFAKYGEPGEVFINKGKGFGFIKLESRALAEIAKAELDDTPMRGRQLRVRFATHAAALSVRNLSPYVSNELLEEAFSQFGPIERAVVIVDDRGRSTGKGIVEFASKPAARKAFERCSEGVFLLTTTPRPVIVEPLEQLDDEDGLPEKLAQKNPMYQKERETPPRFAQHGTFEYEYSQRWKSLDEMEKQQREQVEKNMKDAKDKLESEMEDAYHEHQANLLRQDLMRRQEELRRMEELHNQEMQKRKEMQLRQEEERRRREEEMMIRQREMEEQMRRQREESYSRMGYMDPRERDMRMGGGGAMNMGDPYGSGGQKFPPLGGGGGIGYEANPGVPPATMSGSMMGSDMRTERFGQGGAGPVGGQGPRGMGPGTPAGYGRGREEYEGPNKKPRF
notes: expressed from transfected His-PSF vector or in vitro translated
In the case of B1, the “inhibitory effects on ERβ” value (ERβ) is reported as “not observed”, the “inhibitory effects on ERα” value (ERα) is reported as “not observed” and the “PRA transactivation of MMTV and 3xPRE promoters” value (PRA) is reported as “potently inhibited”.
